From article PMC6787021

Experiments:
[1] = target: TbMscL A85C, spin-labeled with MTSSL (Mycobacterium tuberculosis) (UniProt P9WJN5); assay: SEC
[2] = target: TbMscL E102C, spin-labeled with MTSSL (Mycobacterium tuberculosis) (UniProt P9WJN5); assay: SEC
[3] = target: TbMscL E102C, spin-labeled with MTSSL (Mycobacterium tuberculosis) (UniProt P9WJN5); assay: SEC; samples thawed after PELDOR measurements and run over SEC
[4] = target: TbMscL F5C, spin-labeled with MTSSL (Mycobacterium tuberculosis) (UniProt P9WJN5); assay: SEC
[5] = target: TbMscL F34C, spin-labeled with MTSSL (Mycobacterium tuberculosis) (UniProt P9WJN5); assay: SEC
[6] = target: TbMscL F79C, spin-labeled with MTSSL (Mycobacterium tuberculosis) (UniProt P9WJN5); assay: SEC
[7] = target: TbMscL F84C, spin-labeled with MTSSL (Mycobacterium tuberculosis) (UniProt P9WJN5); assay: SEC
[8] = target: TbMscL F88C, spin-labeled with MTSSL (Mycobacterium tuberculosis) (UniProt P9WJN5); assay: SEC
[9] = target: TbMscL I23C, spin-labeled with MTSSL (Mycobacterium tuberculosis) (UniProt P9WJN5); assay: SEC
[10] = target: TbMscL K99C, spin-labeled with MTSSL (Mycobacterium tuberculosis) (UniProt P9WJN5); assay: SEC
[11] = target: TbMscL K100C, spin-labeled with MTSSL (Mycobacterium tuberculosis) (UniProt P9WJN5); assay: SEC
[12] = target: TbMscL K100R1-F88W (Mycobacterium tuberculosis) (UniProt P9WJN5); assay: SEC
[13] = target: TbMscL K100R1-L89W (Mycobacterium tuberculosis) (UniProt P9WJN5); assay: SEC
[14] = target: TbMscL L2C, spin-labeled with MTSSL (Mycobacterium tuberculosis) (UniProt P9WJN5); assay: SEC
[15] = target: TbMscL L42C, spin-labeled with MTSSL (Mycobacterium tuberculosis) (UniProt P9WJN5); assay: SEC
[16] = target: TbMscL L72C, spin-labeled with MTSSL (Mycobacterium tuberculosis) (UniProt P9WJN5); assay: SEC
[17] = target: TbMscL L72R1-L89W (Mycobacterium tuberculosis) (UniProt P9WJN5); assay: SEC
[18] = target: TbMscL L72R1-L89W (Mycobacterium tuberculosis) (UniProt P9WJN5); assay: SEC; samples thawed after PELDOR measurements and run over SEC
[19] = target: TbMscL L73C, spin-labeled with MTSSL (Mycobacterium tuberculosis) (UniProt P9WJN5); assay: SEC
[20] = target: TbMscL L73R1-L89W (Mycobacterium tuberculosis) (UniProt P9WJN5); assay: SEC
[21] = target: TbMscL L89C, spin-labeled with MTSSL (Mycobacterium tuberculosis) (UniProt P9WJN5); assay: SEC
[22] = target: TbMscL N70C, spin-labeled with MTSSL (Mycobacterium tuberculosis) (UniProt P9WJN5); assay: SEC
[23] = target: TbMscL N70R1-L89W (Mycobacterium tuberculosis) (UniProt P9WJN5); assay: SEC
[24] = target: TbMscL R98C, spin-labeled with MTSSL (Mycobacterium tuberculosis) (UniProt P9WJN5); assay: SEC
[25] = target: TbMscL V48C, spin-labeled with MTSSL (Mycobacterium tuberculosis) (UniProt P9WJN5); assay: SEC
[26] = target: TbMscL V112C, spin-labeled with MTSSL (Mycobacterium tuberculosis) (UniProt P9WJN5); assay: SEC
[27] = target: TbMscL Y87C, spin-labeled with MTSSL (Mycobacterium tuberculosis) (UniProt P9WJN5); assay: SEC

“TbMscL A85C, spin-labeled with MTSSL (from UniProt P9WJN5 1-151) (natural protein)” was tested, and the stoichiometry N [1] was 5.

For “TbMscL E102C, spin-labeled with MTSSL (from UniProt P9WJN5 1-151) (natural protein)”, the stoichiometry N [2] was 5 and the stoichiometry N [3] was 5.

Work on “TbMscL F5C, spin-labeled with MTSSL (from UniProt P9WJN5 1-151) (natural protein)” yielded a stoichiometry N [4] of 5.

With “TbMscL F34C, spin-labeled with MTSSL (from UniProt P9WJN5 1-151) (natural protein)” the stoichiometry N [5] was 5.

With “TbMscL F79C, spin-labeled with MTSSL (from UniProt P9WJN5 1-151) (natural protein)” the stoichiometry N [6] was 5.

“TbMscL F84C, spin-labeled with MTSSL (from UniProt P9WJN5 1-151) (natural protein)” showed a stoichiometry N [7] of 5.

With “TbMscL F88C, spin-labeled with MTSSL (from UniProt P9WJN5 1-151) (natural protein)” the stoichiometry N [8] was 5.

“TbMscL I23C, spin-labeled with MTSSL (from UniProt P9WJN5 1-151) (natural protein)” showed a stoichiometry N [9] of 5.

For “TbMscL K99C, spin-labeled with MTSSL (from UniProt P9WJN5 1-151) (natural protein)”, the stoichiometry N [10] was 5.

In the case of “TbMscL K100C, spin-labeled with MTSSL (from UniProt P9WJN5 1-151) (natural protein)”, the stoichiometry N [11] is reported as 5.

With “TbMscL K100R1-F88W (from UniProt P9WJN5 1-151) (natural protein)” the stoichiometry N [12] was 5.

With “TbMscL K100R1-L89W (from UniProt P9WJN5 1-151) (natural protein)” the stoichiometry N [13] was 5.

“TbMscL L2C, spin-labeled with MTSSL (from UniProt P9WJN5 1-151) (natural protein)” was tested, and the stoichiometry N [14] was 5.

“TbMscL L42C, spin-labeled with MTSSL (from UniProt P9WJN5 1-151) (natural protein)” gave a stoichiometry N [15] of 5.

For “TbMscL L72C, spin-labeled with MTSSL (from UniProt P9WJN5 1-151) (natural protein)”, the stoichiometry N [16] was 5.

Work on “TbMscL L72R1-L89W (from UniProt P9WJN5 1-151) (natural protein)” yielded a stoichiometry N [17] of 5 and a stoichiometry N [18] of 5.

With “TbMscL L73C, spin-labeled with MTSSL (from UniProt P9WJN5 1-151) (natural protein)” the stoichiometry N [19] was 5.

“TbMscL L73R1-L89W (from UniProt P9WJN5 1-151) (natural protein)” was tested, and the stoichiometry N [20] was 5.

With “TbMscL L89C, spin-labeled with MTSSL (from UniProt P9WJN5 1-151) (natural protein)” the stoichiometry N [21] was 5.

Work on “TbMscL N70C, spin-labeled with MTSSL (from UniProt P9WJN5 1-151) (natural protein)” yielded a stoichiometry N [22] of 5.

In the case of “TbMscL N70R1-L89W (from UniProt P9WJN5 1-151) (natural protein)”, the stoichiometry N [23] is reported as 5.

In the case of “TbMscL R98C, spin-labeled with MTSSL (from UniProt P9WJN5 1-151) (natural protein)”, the stoichiometry N [24] is reported as 5.

For “TbMscL V48C, spin-labeled with MTSSL (from UniProt P9WJN5 1-151) (natural protein)”, the stoichiometry N [25] was 5.

“TbMscL V112C, spin-labeled with MTSSL (from UniProt P9WJN5 1-151) (natural protein)” showed a stoichiometry N [26] of 5.

With “TbMscL Y87C, spin-labeled with MTSSL (from UniProt P9WJN5 1-151) (natural protein)” the stoichiometry N [27] was 5.
